Holding throughout (assay): two-hybrid; MAPPIT (mammalian two-hybrid) in intact HEK293T cells: bait on the EpoR/leptin receptor chimera, prey on gp130 fragments, pXP2d2-rPAP1-luciferase reporter; fold induction of luciferase, Epo-stimulated (10 ng/ml hEpo) over unstimulated; 6-well or 96-well calcium phosphate transfection
A general note: A reporter such as luciferase makes a cellular process visible.

Test [1] deals with Apobec3G E110S MAPPIT bait (human) (UniProt Q9HC16).
The target in test [2] is Apobec3G TF106-107AA MAPPIT bait (human) (UniProt Q9HC16).
Apobec3G TF106-107AA MAPPIT bait (human), sequence (Q9HC16 whole entry T106A/F107A): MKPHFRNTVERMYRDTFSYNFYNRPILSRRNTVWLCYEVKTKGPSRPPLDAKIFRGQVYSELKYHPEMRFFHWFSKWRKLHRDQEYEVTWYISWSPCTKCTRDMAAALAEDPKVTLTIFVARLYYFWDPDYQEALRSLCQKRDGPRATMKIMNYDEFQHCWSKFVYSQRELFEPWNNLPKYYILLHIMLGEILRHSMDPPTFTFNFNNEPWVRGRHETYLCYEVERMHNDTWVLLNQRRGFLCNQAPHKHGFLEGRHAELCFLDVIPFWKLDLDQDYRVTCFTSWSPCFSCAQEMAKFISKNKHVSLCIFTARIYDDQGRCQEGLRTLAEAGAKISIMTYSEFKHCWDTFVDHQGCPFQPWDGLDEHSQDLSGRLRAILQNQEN
Test [3] has as its target Apobec3G M12A MAPPIT bait (human) (UniProt Q9HC16).
Test [4] concerns the target Apobec3G TK98-99AS MAPPIT bait (human) (UniProt Q9HC16).
Test [5] concerns the target Apobec3G K99D MAPPIT bait (human) (UniProt Q9HC16).
For test [6], the target named is Apobec3G N20A MAPPIT bait (human) (UniProt Q9HC16).
Apobec3G N20A MAPPIT bait (human), sequence (Q9HC16 whole entry N20A): as the sequence (Q9HC16 whole entry T106A/F107A) above, with N20A, A106T, A107F counted along it
In test [7] the target is Apobec3G LS27-28AA MAPPIT bait (human) (UniProt Q9HC16).
Apobec3G LS27-28AA MAPPIT bait (human), sequence (Q9HC16 whole entry L27A/S28A): as the sequence (Q9HC16 whole entry T106A/F107A) above, with L27A, S28A, A106T, A107F counted along it
Test [8] has as its target Apobec3G D128Q MAPPIT bait (human) (UniProt Q9HC16).
In test [9] the target is Apobec3G D128K MAPPIT bait (human) (UniProt Q9HC16).
Apobec3G D128K MAPPIT bait (human), sequence (Q9HC16 whole entry D128K): as the sequence (Q9HC16 whole entry T106A/F107A) above, with A106T, A107F, D128K counted along it
Test [10] deals with Apobec3G YS166-167AA MAPPIT bait (human) (UniProt Q9HC16).
Apobec3G YS166-167AA MAPPIT bait (human), sequence (Q9HC16 whole entry Y166A/S167A): as the sequence (Q9HC16 whole entry T106A/F107A) above, with A106T, A107F, Y166A, S167A counted along it
Test [11] concerns the target Apobec3G P129A MAPPIT bait (human) (UniProt Q9HC16).
For test [12], the target named is Apobec3G V9A MAPPIT bait (human) (UniProt Q9HC16).
Apobec3G V9A MAPPIT bait (human), sequence (Q9HC16 whole entry V9A): as the sequence (Q9HC16 whole entry T106A/F107A) above, with V9A, A106T, A107F counted along it
Test [13] addresses Apobec3G T32Q MAPPIT bait (human) (UniProt Q9HC16).
The target of test [14] is Apobec3G Y124A MAPPIT bait (human) (UniProt Q9HC16).
Apobec3G Y124A MAPPIT bait (human), sequence (Q9HC16 whole entry Y124A): as the sequence (Q9HC16 whole entry T106A/F107A) above, with A106T, A107F, Y124A counted along it
For test [15], the target named is Apobec3G W34A MAPPIT bait (human) (UniProt Q9HC16).
Apobec3G W34A MAPPIT bait (human), sequence (Q9HC16 whole entry W34A): as the sequence (Q9HC16 whole entry T106A/F107A) above, with W34A, A106T, A107F counted along it
For test [16], the target named is Apobec3G TK98-99AD MAPPIT bait (human) (UniProt Q9HC16).
Apobec3G TK98-99AD MAPPIT bait (human), sequence (Q9HC16 whole entry T98A/K99D): as the sequence (Q9HC16 whole entry T106A/F107A) above, with T98A, K99D, A106T, A107F counted along it

Apobec3G P129A MAPPIT bait (human), sequence (Q9HC16 whole entry P129A): as the sequence (Q9HC16 whole entry T106A/F107A) above, with A106T, A107F, P129A counted along it
Apobec3G D128Q MAPPIT bait (human), sequence (Q9HC16 whole entry D128Q): as the sequence (Q9HC16 whole entry T106A/F107A) above, with A106T, A107F, D128Q counted along it
Apobec3G E110S MAPPIT bait (human), sequence (Q9HC16 whole entry E110S): as the sequence (Q9HC16 whole entry T106A/F107A) above, with A106T, A107F, E110S counted along it
Apobec3G K99D MAPPIT bait (human), sequence (Q9HC16 whole entry K99D): as the sequence (Q9HC16 whole entry T106A/F107A) above, with K99D, A106T, A107F counted along it
Apobec3G M12A MAPPIT bait (human), sequence (Q9HC16 whole entry M12A): as the sequence (Q9HC16 whole entry T106A/F107A) above, with M12A, A106T, A107F counted along it
Apobec3G T32Q MAPPIT bait (human), sequence (Q9HC16 whole entry T32Q): as the sequence (Q9HC16 whole entry T106A/F107A) above, with T32Q, A106T, A107F counted along it
Apobec3G TK98-99AS MAPPIT bait (human), sequence (Q9HC16 whole entry T98A/K99S): as the sequence (Q9HC16 whole entry T106A/F107A) above, with T98A, K99S, A106T, A107F counted along it

Regarding “Gagpol MAPPIT prey (pMG2-Gagpol) (natural protein)”, the MAPPIT signal, % of WT in test [1] was 80 % of WT; in [2], 94 % of WT; in [3], 25 % of WT; in test [4] it was 79 % of WT; in test [5], 96 % of WT; in [6] it was 71 % of WT. Also, the MAPPIT signal, % of WT in [7] is 48 % of WT; in [8], 71 % of WT; in test [9], 98 % of WT; in test [10], 80 % of WT; in test [11], 70 % of WT; in test [12] it was 101 % of WT. The MAPPIT signal, % of WT was 118 % of WT in [13], 61 % of WT in test [14], 50 % of WT in [15] and 74 % of WT in test [16].
